Experimental findings from publication PMC12676778, “Long-tailed class I myosins rely on tail-mediated phosphoinositide recognition for specific membrane recruitment” (Cell Communication and Signaling : CCS, 2025) are described below.

What all share (conditions): both partners purified
The target in one test is microtubules (UniProt P02550 1-451, alpha/beta-tubulin heterodimer polymerised into paclitaxel-stabilised microtubules, GTP in the buffer. Source and isotypes not given); porcine brain tubulin (a natural isotype mixture with native mod). Briefly: co-sedimentation; YFP fluorescence of pellet and supernatant; 100 mM PIPES pH 6.8, 2 mM MgCl2, 1 mM EGTA, 20 µM paclitaxel, 1 mM GTP; 20,000 g, 30 min, 30 °C; hyperbolic fit.

In test [1] the target is T1, F-actin (UniProt P68135 1-377). Put plainly: co-sedimentation; YFP fluorescence of pellet and supernatant; increasing F-actin concentrations; 5 mM Tris pH 7.4, 100 mM KCl, 0.04% NaN3, 2 mM MgCl2; 20,000 g, 30 min, 4 °C.
Test [2] deals with T1, F-actin. The description is as above. This is another data set of the same source.

Sequence of microtubules (P02550 whole entry, chain 1 of 2): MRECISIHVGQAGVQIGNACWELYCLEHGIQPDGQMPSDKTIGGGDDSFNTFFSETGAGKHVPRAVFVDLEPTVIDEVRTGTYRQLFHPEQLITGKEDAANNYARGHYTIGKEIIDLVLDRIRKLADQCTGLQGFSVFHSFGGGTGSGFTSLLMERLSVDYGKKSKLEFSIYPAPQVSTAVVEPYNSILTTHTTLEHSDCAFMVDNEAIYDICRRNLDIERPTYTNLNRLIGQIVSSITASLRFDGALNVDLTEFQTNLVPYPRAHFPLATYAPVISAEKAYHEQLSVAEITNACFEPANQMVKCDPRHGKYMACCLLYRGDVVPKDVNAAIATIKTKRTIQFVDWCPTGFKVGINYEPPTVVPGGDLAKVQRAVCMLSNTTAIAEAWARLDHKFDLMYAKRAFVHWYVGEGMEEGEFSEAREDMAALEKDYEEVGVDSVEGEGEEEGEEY
Sequence of microtubules (P02554 whole entry, chain 2 of 2, further chain): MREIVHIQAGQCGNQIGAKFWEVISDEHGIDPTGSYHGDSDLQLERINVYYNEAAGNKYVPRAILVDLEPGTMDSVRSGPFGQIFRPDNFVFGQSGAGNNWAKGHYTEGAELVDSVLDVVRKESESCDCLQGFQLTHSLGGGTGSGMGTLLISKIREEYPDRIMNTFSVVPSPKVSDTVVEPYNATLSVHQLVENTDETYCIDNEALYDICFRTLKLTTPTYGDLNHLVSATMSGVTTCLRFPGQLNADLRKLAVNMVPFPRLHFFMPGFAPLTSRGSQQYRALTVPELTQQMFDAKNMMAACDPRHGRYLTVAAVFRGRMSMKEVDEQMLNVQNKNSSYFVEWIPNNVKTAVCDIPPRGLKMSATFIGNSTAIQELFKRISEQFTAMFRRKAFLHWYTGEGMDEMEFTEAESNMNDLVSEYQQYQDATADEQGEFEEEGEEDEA

B1: myosin-1D tail-TH1 construct (aa 721–913) (domain or fragment, Dictyostelium discoideum, UniProt P34109 721-913, looked up)
chain: MKSNKERRRLSIERPYQGDYINYRENFELKDIVKKNGNEKIMFTHAVNKYDRRSRCQRRVLLLSDTAIYFIATEKNKDKEDRKKRPWIYVQKRRLLLAGITSVELSKLSDGFVVLKTMNEHDQIFECRRKTEFLGTLIKAYKTGTLRINYNNSIGVAIKASKQGGKGKERIILFEKGIKPGESVFKGTKVSTP
notes: Dictyostelium discoideum myosin-1D, TH1 domain only, aa 721-913; The methods describe cloning into pGEX-6P2 (GST only); the results call the construct YFP-tagged and the co-sedimentation detects YFP; S3; also called Myosin-1D-TH1; isolated TH1 domain; source: E. coli Rosetta pLys-S, purified (glutathione-Sepharose, size exclusion chromatography)
As for B1, the dissociation constant (Kd) (usually the free concentration of one partner at which half of the binding sites on the other are occupied at equilibrium, for simple one-to-one binding) with microtubules amounted to 3300 ± 200 nM.

B2: myosin-1B tail (amino acids 717–1111) (domain or fragment, Dictyostelium discoideum, UniProt P34092 717-1111, looked up)
chain: QRAQIAHMFKDKKERQRNSIDRKFTSDYIDFENQFGLQEAMQNAHKKERVVFADTVIKIDRRAKQKNYEMVLTDQALYFVEKSIKKKVLVHTLIRRVGLREIKGVSISTLSDNVIVFHLPEHDQVIENDKKTEIIIVLVEYFKAIGGGSLNVQFSDRINYTLKKGEQKEISFQKSEQCPTLVVKKGGKGLIGTIASGLPSSTDSTPKNYNPNSMSQASSRPAPQQSAGRGRGMPQGAGQPQPQQPQQQQRPMPQPQQGGGARPMPQPQQGGGARPMGAPQQGGAPQQGAGRQLPQPTQQGGAPGGRGAPMGRGAPGGGPAGAGGRPLPTVAKPAPQPSRPTAKALYDYDASSTDELSFKEGDIIFIVQKDNGGWTQGELKSGQKGWAPTNYLQYN
notes: Dictyostelium discoideum myosin-1B, tail, amino acids 717-1111 (NCBI XM_631290.1); Cloned both into pGEX-6P2 (GST only) and pGEX-6P2-eYFP-mcs (GST and YFP); the actin and microtubule assays detect YFP; S3; also called YFP-myosin-1 tail; source: E. coli Rosetta pLys-S, purified (glutathione-Sepharose, size exclusion chromatography); not shown: YFP, C-terminal, kept
Regarding B2, the dissociation constant Kd was found to be 900 ± 100 nM with microtubules and 6800 ± 200 nM with F-actin [1].

B3: myosin-1C tail (domain or fragment)
chain: RYWHDMASRIKNAYRNYKAFQFECSNRIKNAFRNYKLYRQRCAQTIQGYFRAWKQASPFFDLRMQNEQLFQGRKERNRFSMISVRKYFGDYLDVRSQSYFLDAMAEGRNEDVIFSSKSQVMVHPILSANKLSPRFLIVTKQAIYLIKLKQKKNLATYLLDRRVPLAEVTSFSLSSLADNLLVIHTSTQFDVAVTTEFKTELVALINKQKGTTLAVNFGQSIQYFKKKGSNNTVTFLKDEMHKEIFLKKNQFHIASGLPASTTVAKVRKNPSQVSTPSKPIAKPVAKPMVAKPSGGSVIMKKPAPAAPPSGPPVMKKPAPTAPGGAPMMKKPAPAPGGAPMMKKPAPVPGGPAPGGSAIMKPAGGVSKPLPSPTGAPMMKKPAPTAPGGPAPAGAPTPMMKKPAGQPMMKPIAKPQPTPMKKPAAPPPQQYIALYEYDAMQPDELTFKENDVINLIKKVDADWWQGELVRTKQIGMLPSNYVQQI
notes: Dictyostelium discoideum myosin-1C, tail; S3; also called YFP-myosin-1 tail; source: E. coli Rosetta pLys-S, purified (glutathione-Sepharose, size exclusion chromatography)
With B3, the figures for the Kd with F-actin [2] and in the test with F-actin [1] were 900 ± 400 nM and 800 ± 80 nM, respectively.
